# According to patent US20110151450:
# Residue numbers refer to the chain shown, from its start.
# Columns and labels:
# Assay in all cases: cleavage_in_vitro
# [1] = system: T1, ApoI-WT (Arthrobacter protophormiae); conditions: NEB4, relative activity 50%
# T1 sequence: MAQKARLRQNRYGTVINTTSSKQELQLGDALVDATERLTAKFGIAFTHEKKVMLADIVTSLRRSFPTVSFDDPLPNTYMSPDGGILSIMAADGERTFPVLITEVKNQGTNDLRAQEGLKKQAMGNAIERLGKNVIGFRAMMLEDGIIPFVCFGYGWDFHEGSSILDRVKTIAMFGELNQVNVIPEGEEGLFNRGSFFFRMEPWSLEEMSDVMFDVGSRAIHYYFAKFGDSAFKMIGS
# [2] = target: T2, BglII-WT (Bacillus globigii) (UniProt Q45488); conditions: NEB4, relative activity 6.3%
# T2 sequence: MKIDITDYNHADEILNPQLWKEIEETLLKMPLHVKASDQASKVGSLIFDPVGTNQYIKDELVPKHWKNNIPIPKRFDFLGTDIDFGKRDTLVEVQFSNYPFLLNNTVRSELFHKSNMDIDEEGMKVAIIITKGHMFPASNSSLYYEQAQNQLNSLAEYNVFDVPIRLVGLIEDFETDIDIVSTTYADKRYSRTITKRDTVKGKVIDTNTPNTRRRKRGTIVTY
# [3] = system: T3, BmtI-HF S50A (Bacillus megaterium); conditions: NEB4, relative activity 100%
# T3 sequence: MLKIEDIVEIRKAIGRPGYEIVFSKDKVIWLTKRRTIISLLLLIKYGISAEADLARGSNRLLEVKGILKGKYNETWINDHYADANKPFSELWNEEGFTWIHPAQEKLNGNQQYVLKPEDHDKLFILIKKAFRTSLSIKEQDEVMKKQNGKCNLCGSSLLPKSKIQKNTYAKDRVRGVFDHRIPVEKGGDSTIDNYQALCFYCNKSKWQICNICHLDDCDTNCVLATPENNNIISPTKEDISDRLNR
# [4] = system: T4, BmtI-WT (Bacillus megaterium); conditions: NEB4, relative activity 100%
# T4 sequence: T3 sequence with A50S
# [5] = system: T5, BsaWI-HF Q261A (Bacillus stearothermophilus); conditions: NEB4, relative activity 100%
# T5 sequence: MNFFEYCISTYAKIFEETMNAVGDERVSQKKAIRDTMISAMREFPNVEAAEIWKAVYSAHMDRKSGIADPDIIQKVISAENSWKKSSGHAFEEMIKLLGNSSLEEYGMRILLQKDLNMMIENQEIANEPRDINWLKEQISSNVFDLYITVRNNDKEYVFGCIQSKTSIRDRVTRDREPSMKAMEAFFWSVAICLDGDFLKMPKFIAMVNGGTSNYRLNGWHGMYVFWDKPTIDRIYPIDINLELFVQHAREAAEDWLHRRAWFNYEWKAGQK
# [6] = system: T6, PmeI-HF E86A (Pseudomonas mendocina); conditions: NEB4, relative activity 100%
# T6 sequence: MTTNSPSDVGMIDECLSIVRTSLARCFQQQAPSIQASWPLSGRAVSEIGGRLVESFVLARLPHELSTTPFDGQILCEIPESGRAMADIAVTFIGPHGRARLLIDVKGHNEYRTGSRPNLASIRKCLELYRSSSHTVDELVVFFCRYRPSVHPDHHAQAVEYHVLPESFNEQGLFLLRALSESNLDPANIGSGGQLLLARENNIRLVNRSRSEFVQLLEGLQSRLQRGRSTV
# [7] = system: T7, PmeI-WT (Pseudomonas mendocina); conditions: NEB4, relative activity 25%
# T7 sequence: T6 sequence with A86E
# [8] = system: T8, PvuI-WT (Proteus vulgaris); conditions: NEB4, relative activity 12.5%
# T8 sequence: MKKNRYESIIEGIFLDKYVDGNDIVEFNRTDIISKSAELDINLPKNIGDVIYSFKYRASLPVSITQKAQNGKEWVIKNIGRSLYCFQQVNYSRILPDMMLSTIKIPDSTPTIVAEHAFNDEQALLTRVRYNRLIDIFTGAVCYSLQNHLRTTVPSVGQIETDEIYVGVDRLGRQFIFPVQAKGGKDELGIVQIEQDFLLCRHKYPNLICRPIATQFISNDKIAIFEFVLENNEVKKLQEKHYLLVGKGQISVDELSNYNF
# [9] = target: T9, SmaI-HF F60L/S61R (Serratia marcescens) (UniProt P14229); conditions: NEB4, relative activity 100%
# T9 sequence: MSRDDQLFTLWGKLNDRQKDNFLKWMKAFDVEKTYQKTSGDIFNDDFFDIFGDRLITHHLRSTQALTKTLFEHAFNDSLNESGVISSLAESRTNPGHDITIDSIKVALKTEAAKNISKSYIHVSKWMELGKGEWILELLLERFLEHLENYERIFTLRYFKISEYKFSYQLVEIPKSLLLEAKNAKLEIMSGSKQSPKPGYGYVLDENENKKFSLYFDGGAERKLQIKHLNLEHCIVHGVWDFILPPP
# [10] = system: T10, SpeI-HF P65A (Sphaerotilus natans); conditions: NEB4, relative activity 100%
# T10 sequence: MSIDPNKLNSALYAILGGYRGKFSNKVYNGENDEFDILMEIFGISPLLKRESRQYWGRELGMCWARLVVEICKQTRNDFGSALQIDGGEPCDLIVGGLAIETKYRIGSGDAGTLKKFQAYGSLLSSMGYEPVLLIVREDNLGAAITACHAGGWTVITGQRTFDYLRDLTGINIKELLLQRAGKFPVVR
# [11] = system: T11, SpeI-WT (Sphaerotilus natans); conditions: NEB4, relative activity 50%
# T11 sequence: T10 sequence with A65P
substance,measurement,setting,value
pXba plasmid,activity (fidelity index),[1],32
same,activity (fidelity index),[2],16
same,activity (fidelity index),[3],> 1e+06
same,activity (fidelity index),[4],16
same,activity (fidelity index),[5],> 4000
same,activity (fidelity index),[6],> 8000
same,activity (fidelity index),[7],64
same,activity (fidelity index),[8],32
same,activity (fidelity index),[9],> 256000
same,activity (fidelity index),[10],> 8000
same,activity (fidelity index),[11],500
